Experimental data taken from the supplement of paper PMC10126150.
± gives the standard deviation of the averaged measurements.

The sequences below were run on ATP (assay: switch fluorescence ratio, 500 uM ATP over buffer (Cy3 cluster intensity, sum of 5 cycles each) (fold (ratio)); higher = stronger signal-on switching upon ATP binding; sequences stand for … in TCGTCGGCAGCGTCAGATGTGTATAAGAGACAGTTTTTTTTTTTTTTTTTTTTTTTTT…TC). Settings: aptamer strand: ATP DNA aptamer (quencher-CACCTGGGGGAGTATTGCGGAGGAAGG + anchor), 100 nM annealed; ATP concentration: 500 uM.
How it was run: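 Cy3-labelled switching-strand clusters on a modified Illumina MiSeq flow-cell were annealed to 100 nM quencher-labelled ATP aptamer, imaged in selection buffer, then imaged after 15 min with 500 uM ATP at 22 °C. Five buffer/ATP cycles ran, with NaOH stripping and re-annealing between them. The fluorescence ratio is summed target-cycle over summed buffer-cycle Cy3 intensity per cluster, averaged per switch-domain sequence. Clusters outside 100-1000 RFU were excluded.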
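Also: ATP exposure 15 min at 22 °C before imaging.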

Sequence | switch fluorescence ratio
CGGTTTGACT | 0.9563 ± 0.0063
ATCAACACCG | 1.06 ± 0.034
TTACTGGATA | 0.987 ± 0.046
CGGAAGCTTT | 1.04 ± 0.021
CGGCGAACTC | 1.11 ± 0.033
GGTTCAAAAC | 0.997 ± 0.059
CGGGGGTAGG | 1.03 ± 0.049
CAAAACTTGC | 1.18 ± 0.032
AGCTCCGACA | 1.63 ± 0.058
TTTGAAAATG | 1.01 ± 0.035
AAGTAGGGGC | 1.02 ± 0.015
CCTGTTTATT | 0.974 ± 0.012
CTCTAAGTCG | 0.976 ± 0.011
GGGCAATATG | 1.17 ± 0.06
CTCGGCTTGA | 1.06 ± 0.018
TTTGAGTCTT | 1 ± 0.039
AGGGGGGAAA | 1.01 ± 0.027
TAAGGATGTT | 0.974 ± 0.026
GATAGGTTTC | 0.977 ± 0.07
ATCCGGGTGT | 2.74 ± 0.17
TGGTATAATC | 1.001 ± 0.0038
TTTTAAATAA | 1.01 ± 0.026
CATTGCAA | 1 ± 0.085
ATACAGGTCT | 1.03 ± 0.011
AGGCTTTGCA | 0.992 ± 0.01
TATTGTGTCG | 1.02 ± 0.016

Sequence | switch fluorescence ratio
CGTTAAGGGA | 0.978 ± 0.021
TTTGGTTCGC | 0.971 ± 0.037
TAATAATCAA | 1.02 ± 0.051
GGGAGAGGGT | 1.02 ± 0.016
GGTCTGCAGC | 1.003 ± 0.0062
ATTGGGGGGC | 1.01 ± 0.036
TAGTTTCTGG | 0.965 ± 0.02
TAAAGAAATG | 0.99 ± 0.033
CGGGGAATAT | 0.993 ± 0.017
CCGCGTTATG | 1.67 ± 0.078
TGGGAACTCT | 0.994 ± 0.012
ATGTTTGGGA | 0.967 ± 0.047
GGCCGGTAAA | 1 ± 0.051
AGTGGGTATT | 1.01 ± 0.016
ACTGTAATCC | 1.16 ± 0.046
GATCATGCTA | 1.02 ± 0.02
TTTATGAAGA | 0.985 ± 0.027
GGGCTGTTTG | 0.95379 ± 2.9e-05
TTGATCAGAG | 1.01 ± 0.024
TTGAAGGCAA | 1.59 ± 0.076
TTAATTGGGT | 1 ± 0.028
CTAGTTAGGG | 0.964 ± 0.02
CGTTGATTAG | 0.984 ± 0.014
AGGGGGTTGG | 1 ± 0.032
TAGGGAGGGC | 1.03 ± 0.041
TTATTTTTAG | 1.01 ± 0.035

Sequence | switch fluorescence ratio
GCATAGGGAA | 1 ± 0.015
TAATATCATT | 1 ± 0.019
GTTTTGGCGT | 0.984 ± 0.021
TTGGTAGGGG | 1.03 ± 0.077
TGGTTATGGC | 0.923 ± 0.082
GGCATCGTAA | 1.01 ± 0.025
CCCCAGGGGG | 3.38 ± 2.3
TGGTTGAACG | 0.996 ± 0.019
TACGATTTAA | 1.01 ± 0.026
AAGGGGGGTC | 0.991 ± 0.042
ATGGTGTCGA | 0.947 ± 0.029
GGGGGGATAG | 1 ± 0.031
GTGTTTATCG | 0.966 ± 0.016
GCGAATTAGA | 1 ± 0.034
TTTTAATTTT | 0.998 ± 0.029
AAAAAGGGGG | 1.02 ± 0.045
TCGGGGCCGT | 0.971 ± 0.059
CTTATTGAGC | 1.01 ± 0.012
TGGGTAAAAT | 0.971 ± 0.03
CACCTTACGT | 1.45 ± 0.079
TTGTAATAGT | 1.026 ± 0.00026
TATCCGGGGT | 1.03 ± 0.025
CGATTAAAAT | 0.986 ± 0.021
CGGGGGTCGG | 0.978 ± 0.012
GAACTTGCCA | 1.06 ± 0.073
GGCGGTGGCA | 1.01 ± 0.026

Sequence | switch fluorescence ratio
AAGATGATGT | 0.986 ± 0.03
AAGCTCGTTG | 1.01 ± 0.031
TAACAGGTGA | 2.17 ± 0.085
TCTGGTTTTG | 0.984 ± 0.043
CAGAGATTTT | 1.005 ± 0.0029
TCAAAATGCA | 0.9976 ± 0.0092
CGTTAGGGAG | 0.95456 ± 0.00035
TACGGGCTTT | 1.03 ± 0.033
TGGTTTCTTG | 0.963 ± 0.042
GTCAGAATGT | 1.02 ± 0.017
ATCGAGTAAG | 1.02 ± 0.029
ATAAAAGTCC | 0.979 ± 0.017
GATGGGAATG | 1.01 ± 0.013
TGTATTAAAG | 0.983 ± 0.029
CGCTATGGGG | 1.02 ± 0.059
GCTTGTTTGA | 1.01 ± 0.014
CTTTATAGTT | 1.02 ± 0.034
CGAGGGATGG | 0.977 ± 0.05
CGGATCGTCG | 0.984 ± 0.038
GCGGGACCCG | 1.01 ± 0.016
AGACAGGAGA | 0.985 ± 0.019
GCCGTAGTGC | 1.01 ± 0.03
TGGGTGCGCA | 1.03 ± 0.025
GACTGGCTGG | 1 ± 0.03
GGGATGGCCT | 0.959 ± 0.011
GGCACTATAA | 1.03 ± 0.023

Sequence | switch fluorescence ratio
TGATTCAGTA | 0.974 ± 0.011
ACGGAGGGTG | 1.029 ± 0.0088
ATGAGTATTG | 0.9888 ± 0.0078
AATGGAAATT | 0.996 ± 0.063
CGGGTGGTTG | 1.04 ± 0.04
TTTGGGACAT | 1.01 ± 0.025
TGGGTAAGTT | 0.996 ± 0.039
TACAGTAGCT | 1.09 ± 0.011
CGCAGCTATT | 3.56 ± 2.1
AGTCATTAGG | 1.03 ± 0.041
ACAAGTGGAC | 1.033 ± 0.0026
AACCGTGGGG | 1.05 ± 0.042
AAGTACGAGG | 1.27 ± 0.17
CAAATGGGGG | 0.985 ± 0.015
GCAAGTAGAG | 1.0067 ± 0.001
ACTTTGTATT | 0.999 ± 0.013
AACTACAGGC | 1.18 ± 0.11
GAAGGACAGC | 1.05 ± 0.034
AATGGGATGT | 0.981 ± 0.017
GAGTGAGCAG | 0.976 ± 0.022
TGGTTTTAGA | 0.999 ± 0.016
ACGGTTGCGC | 1.01 ± 0.034
CTCAGTGGTA | 1.014 ± 0.0043
AATATTGCAC | 1.04 ± 0.021
ATCTCGCGCA | 1.36 ± 0.11
CGGGTTTTGA | 1.003 ± 0.0086

Sequence | switch fluorescence ratio
TATAGAGGGG | 1.07 ± 0.15
TTTGGGGCCC | 1.03 ± 0.041
AAGGCTAAGC | 1.024 ± 0.0026
ATCTTCCAGG | 1.614 ± 0.0089
GGGTGGGATT | 0.986 ± 0.018
GGCTTTACTA | 1 ± 0.012
ACGAAAGTCT | 1.03 ± 0.041
TTTTTATTCC | 1.02 ± 0.034
TTTTAGAGTG | 1 ± 0.036
ATGGGGCGGC | 0.983 ± 0.026
CTAAAAACTA | 0.978 ± 0.013
AGTTGGTTAG | 1.004 ± 0.005
GTTTGTGGGC | 1.01 ± 0.077
TTGAGGGTTT | 0.994 ± 0.029
AGGGTAGGTC | 1.06 ± 0.087
CGAAATTACG | 1.04 ± 0.021
CCTAAATTAT | 1.02 ± 0.035
CTGAATGTAG | 1 ± 0.011
TGGGTGATGT | 0.996 ± 0.066
GTGTTGTTTT | 0.987 ± 0.028
CATGCCGGGA | 1.22 ± 0.38
TAAGACGTTT | 1.0122 ± 0.00032
ATTGCGTGTA | 1.023 ± 0.0085
